Measured values from patent US20120122783A1 (INDIANA UNIVERSITY RESEARCH AND TECHOLOGY, published 2012).
“And” between values parts separate entries of the source, which are not always exact repeats. Identical values can stand only once. Square brackets hold non-standard residues; d marks the D form. Primed or numbered codes have the meaning given here. Ends that are not written are not given here. mPEG‑MAL 20 kDa = maleimido methoxyPEG of about 20 kDa, linked to the Cys sulfur; mPEG‑MAL 5 kDa = maleimido methoxyPEG of about 5 kDa, linked to the Cys sulfur; Abu(4-SO3H) = N[C@@H](CCS(=O)(=O)O)C(=O)O; PhLac = O=C(O)[C@@H](O)Cc1ccccc1; Aad = N[C@@H](CCCC(=O)O)C(=O)O; CH2CH2COOH′ = not defined here

biological target: T1, human glucagon receptor (human, UniProt P47871 26-477); test: cell-based or functional assay
T1 sequence (P47871 26-477): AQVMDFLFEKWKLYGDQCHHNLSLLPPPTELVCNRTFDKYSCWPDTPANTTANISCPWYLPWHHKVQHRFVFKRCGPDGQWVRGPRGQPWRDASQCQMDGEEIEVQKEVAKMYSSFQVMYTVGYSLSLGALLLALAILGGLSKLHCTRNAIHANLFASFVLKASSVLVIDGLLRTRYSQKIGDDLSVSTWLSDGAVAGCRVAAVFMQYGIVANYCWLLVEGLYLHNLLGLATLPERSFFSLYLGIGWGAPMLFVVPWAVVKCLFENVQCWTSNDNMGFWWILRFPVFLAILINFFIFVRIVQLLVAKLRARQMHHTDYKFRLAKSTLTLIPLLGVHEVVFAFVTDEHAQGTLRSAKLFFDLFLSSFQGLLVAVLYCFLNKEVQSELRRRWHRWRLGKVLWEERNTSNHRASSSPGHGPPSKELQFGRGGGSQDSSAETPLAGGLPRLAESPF

Row | cAMP Induction EC50 | IC50 (nM) (cAMP, inhibit 0.2 mM Glucagon) | Molecule
1 | 0.97 nM | – | Oxyntomodulin C24 PEG 20 K (from UniProt P01275 53-89) (peptide)
2 | 2.54 nM | – | Oxyntomodulin C24 (from UniProt P01275 53-89) (peptide)
3 | 3.25 nM | – | Oxyntomodulin (from UniProt P01275 53-89) (peptide)
4 | – | 14800 nM | [d-Cys5(20kDaPEG), E9]Glucagon(aa5-29) -NH2 (peptide)

biological target: T1, human glucagon receptor; test: cell-based or functional assay; remark: another data set of the same source

Row | IC50 (nM) (cAMP, inhibit 0.2 mM Glucagon) | Molecule
5 | 1610 nM | C(5 kDa PEG)FTSEYSKYLDSRRAQDFVQWLMNT-NH2 [[C5(5kDaPEG), E9]Glucagon(aa5-29) -NH2]
6 | 1340 nM | C(3.4 kDa PEG)FTSEYSKYLDSRRAQDFVQWLMNT-NH2 (also: dimer: the two Cys5 joined by 3.4 kDa PEG) [3.4kDaPEG-dimer[C5, E9]Glucagon(aa5-29) -NH2]
7 | 216 nM | [PhLac]TC(mPEG‑MAL 5 kDa)EYSKYLDSRRAQDFVQWLMNT-NH2 [[PLA6, C8(5kDaPEG), E9]Glucagon(aa6-29) -NH2]
8 | 976 nM | C(20 kDa PEG)FTSEYSKYLDSRRAQDFVQWLMNT-NH2 [[C5(20kDaPEG), E9]Glucagon(aa5-29) -NH2]
9 | 2280 nM | C(1.2 kDa PEG)FTSEYSKYLDSRRAQDFVQWLMNT-NH2 [[C5(1.2kDaPEG), E9]Glucagon(aa5-29) -NH2]
10 | 236 nM and 92 nM | [PhLac]TC(mPEG‑MAL 20 kDa)EYSKYLDSRRAQDFVQWLMNT-NH2 [[PLA6, C8(20kDaPEG), E9]Glucagon(aa6-29)-NH2]
11 | 664 nM | [PhLac]TSEYC(mPEG‑MAL 20 kDa)KYLDSRRAQDFVQWLMNT-NH2 [[PLA6, E9, C11(20kDaPEG)]Glucagon(aa6-29)-NH2]
12 | 126 nM | [PhLac]TSEYSKYLDSRRAQDFVC(mPEG‑MAL 20 kDa)WLMNT-NH2 [[PLA6, E9, C24(20kDaPEG)]Glucagon(aa6-29)-NH2]
13 | 18 nM | [PhLac]TSEYSKYLDSRRAQDFVC(m‑dPEG24‑MAL)WLMNT-NH2 [[PLA6, E9 ,C24(1.2 kDaPEG)]Glucagon(aa6-29) -NH2]

biological target: T1, human glucagon receptor; test: cell-based or functional assay; remark: another data set of the same source

Row | cAMP Induction EC50 | cAMP Inhibition IC50 | Molecule
14 | 430 nM | – | SQGTFTS[Abu(4-SO3H)]YSKYLDSRRAQDFVQFLLNT-NH2 (N-terminus assumed; SMILES CC(C)C[C@H](NC(=O)[C@H](Cc1ccc(O)cc1)NC(=O)[C@H](CCCCN)NC(=O)[C@H](CO)NC(=O)[C@H](Cc1ccc(O)cc1)NC(=O)[C@H](CCS(=O)(=O)O)NC(=O)[C@H](CO)NC(=O)[C@@H](NC(=O)[C@H](Cc1ccccc1)NC(=O)[C@@H](NC(=O)CNC(=O)[C@H](CCC(N)=O)NC(=O)[C@@H](N)CO)[C@@H](C)O)[C@@H](C)O)C(=O)N[C@@H](CC(=O)O)C(=O)N[C@@H](CO)C(=O)N[C@@H](CCCNC(=N)N)C(=O)N[C@@H](CCCNC(=N)N)C(=O)N[C@@H](C)C(=O)N[C@@H](CCC(N)=O)C(=O)N[C@@H](CC(=O)O)C(=O)N[C@@H](Cc1ccccc1)C(=O)N[C@H](C(=O)N[C@@H](CCC(N)=O)C(=O)N[C@@H](Cc1ccccc1)C(=O)N[C@@H](CC(C)C)C(=O)N[C@@H](CC(C)C)C(=O)N[C@@H](CC(N)=O)C(=O)N[C@H](C(N)=O)[C@@H](C)O)C(C)C) [[desHis^1, hCys^9(SO3-), Phe^25, Leu^27] Glucagon-NH2]
15 | 81 nM | – | SQGTFTSEYSKYLDSRRAQDFVQFLLNT-NH2 [[desHis^1, Glu^9, Phe^25, Leu^27]Glucagon-NH2]
16 | 318 nM | 102 nM | SQLTFTSEYSKYLDSRRAQDFVQWLMNT-NH2 [[desHis^1, Leu^4, Glu^9] Glucagon-NH2]
17 | 1610 nM | 4460 nM | SQLTFTS[Abu(4-SO3H)]YSKYLDSRRAQDFVQFLLNT-NH2 (N-terminus assumed; SMILES CC(C)C[C@H](NC(=O)[C@H](Cc1ccc(O)cc1)NC(=O)[C@H](CCCCN)NC(=O)[C@H](CO)NC(=O)[C@H](Cc1ccc(O)cc1)NC(=O)[C@H](CCS(=O)(=O)O)NC(=O)[C@H](CO)NC(=O)[C@@H](NC(=O)[C@H](Cc1ccccc1)NC(=O)[C@@H](NC(=O)[C@H](CC(C)C)NC(=O)[C@H](CCC(N)=O)NC(=O)[C@@H](N)CO)[C@@H](C)O)[C@@H](C)O)C(=O)N[C@@H](CC(=O)O)C(=O)N[C@@H](CO)C(=O)N[C@@H](CCCNC(=N)N)C(=O)N[C@@H](CCCNC(=N)N)C(=O)N[C@@H](C)C(=O)N[C@@H](CCC(N)=O)C(=O)N[C@@H](CC(=O)O)C(=O)N[C@@H](Cc1ccccc1)C(=O)N[C@H](C(=O)N[C@@H](CCC(N)=O)C(=O)N[C@@H](Cc1ccccc1)C(=O)N[C@@H](CC(C)C)C(=O)N[C@@H](CC(C)C)C(=O)N[C@@H](CC(N)=O)C(=O)N[C@H](C(N)=O)[C@@H](C)O)C(C)C) [[desHis^1, Leu^4, hCys^9(SO3-), Phe^25, Leu^27] Glucagon-NH2]
18 | 3210 nM | 9220 nM | SQGTTS[Abu(4-SO3H)]YSKYLDSRRAQDFVQFLLNT-NH2 (N-terminus assumed; SMILES CC(C)C[C@H](NC(=O)[C@H](Cc1ccc(O)cc1)NC(=O)[C@H](CCCCN)NC(=O)[C@H](CO)NC(=O)[C@H](Cc1ccc(O)cc1)NC(=O)[C@H](CCS(=O)(=O)O)NC(=O)[C@H](CO)NC(=O)[C@@H](NC(=O)[C@@H](NC(=O)CNC(=O)[C@H](CCC(N)=O)NC(=O)[C@@H](N)CO)[C@@H](C)O)[C@@H](C)O)C(=O)N[C@@H](CC(=O)O)C(=O)N[C@@H](CO)C(=O)N[C@@H](CCCNC(=N)N)C(=O)N[C@@H](CCCNC(=N)N)C(=O)N[C@@H](C)C(=O)N[C@@H](CCC(N)=O)C(=O)N[C@@H](CC(=O)O)C(=O)N[C@@H](Cc1ccccc1)C(=O)N[C@H](C(=O)N[C@@H](CCC(N)=O)C(=O)N[C@@H](Cc1ccccc1)C(=O)N[C@@H](CC(C)C)C(=O)N[C@@H](CC(C)C)C(=O)N[C@@H](CC(N)=O)C(=O)N[C@H](C(N)=O)[C@@H](C)O)C(C)C) [[desHis^1, desPhe^6, hCys^9(SO3-), Phe^25, Leu^27] Glucagon-NH2]

biological target: T1, human glucagon receptor; test: cell-based or functional assay; remark: another data set of the same source

Row | IC50 (nM) (cAMP, inhibit Glucagon) 0.1 nM or 0.2 nM | Molecule
19 | 13.2 nM | [PhLac]TSDYSKYLDSRRAQDFVQWLMNT-OH (N-terminus assumed; SMILES CSCC[C@H](NC(=O)[C@H](CC(C)C)NC(=O)[C@H](Cc1c[nH]c2ccccc12)NC(=O)[C@H](CCC(N)=O)NC(=O)[C@@H](NC(=O)[C@H](Cc1ccccc1)NC(=O)[C@H](CC(=O)O)NC(=O)[C@H](CCC(N)=O)NC(=O)[C@H](C)NC(=O)[C@H](CCCNC(=N)N)NC(=O)[C@H](CCCNC(=N)N)NC(=O)[C@H](CO)NC(=O)[C@H](CC(=O)O)NC(=O)[C@H](CC(C)C)NC(=O)[C@H](Cc1ccc(O)cc1)NC(=O)[C@H](CCCCN)NC(=O)[C@H](CO)NC(=O)[C@H](Cc1ccc(O)cc1)NC(=O)[C@H](CC(=O)O)NC(=O)[C@H](CO)NC(=O)[C@@H](NC(=O)[C@@H](O)Cc1ccccc1)[C@@H](C)O)C(C)C)C(=O)N[C@@H](CC(N)=O)C(=O)N[C@H](C(=O)O)[C@@H](C)O) [[PLA6, D9]Glucagon(aa6-29)-COOH]
20 | 6.9 nM | [PhLac]TSDYSKYLDSRRAQDFVQWLMNT-NH2 (N-terminus assumed; SMILES CSCC[C@H](NC(=O)[C@H](CC(C)C)NC(=O)[C@H](Cc1c[nH]c2ccccc12)NC(=O)[C@H](CCC(N)=O)NC(=O)[C@@H](NC(=O)[C@H](Cc1ccccc1)NC(=O)[C@H](CC(=O)O)NC(=O)[C@H](CCC(N)=O)NC(=O)[C@H](C)NC(=O)[C@H](CCCNC(=N)N)NC(=O)[C@H](CCCNC(=N)N)NC(=O)[C@H](CO)NC(=O)[C@H](CC(=O)O)NC(=O)[C@H](CC(C)C)NC(=O)[C@H](Cc1ccc(O)cc1)NC(=O)[C@H](CCCCN)NC(=O)[C@H](CO)NC(=O)[C@H](Cc1ccc(O)cc1)NC(=O)[C@H](CC(=O)O)NC(=O)[C@H](CO)NC(=O)[C@@H](NC(=O)[C@@H](O)Cc1ccccc1)[C@@H](C)O)C(C)C)C(=O)N[C@@H](CC(N)=O)C(=O)N[C@H](C(N)=O)[C@@H](C)O) [[PLA6, D9]Glucagon(aa6-29)-NH2]

biological target: T1, human glucagon receptor; test: cell-based or functional assay; remark: another data set of the same source

Row | cAMP (I/A)50, inhibition index | Molecule
21 | 1730 ratio | FTSDYSKYLDSRRAQDFVQWLMNT-NH2 [Glucagon(aa6-29)-NH2]
22 | 506 ratio | FTSC(CH2COOH)YSKYLDSRRAQDFVQWLMNT-NH2 [[(CSA-1)^9]Glucagon(aa6-29)-NH2]
23 | 1990 ratio | FTSKYSKYLDSRRAQDFVQWLMNT-NH2 [[Lys^9]Glucagon(aa6-29)-NH2]
24 | 580 ratio | FTSC(CH2CH2COOH′)YSKYLDSRRAQDFVQWLMNT-NH2 [[(CSA-2)^9]Glucagon(aa6-29)-NH2]
25 | 2360 ratio | FTS[Aad]YSKYLDSRRAQDFVQWLMNT-NH2 (N-terminus assumed; SMILES CSCC[C@H](NC(=O)[C@H](CC(C)C)NC(=O)[C@H](Cc1c[nH]c2ccccc12)NC(=O)[C@H](CCC(N)=O)NC(=O)[C@@H](NC(=O)[C@H](Cc1ccccc1)NC(=O)[C@H](CC(=O)O)NC(=O)[C@H](CCC(N)=O)NC(=O)[C@H](C)NC(=O)[C@H](CCCNC(=N)N)NC(=O)[C@H](CCCNC(=N)N)NC(=O)[C@H](CO)NC(=O)[C@H](CC(=O)O)NC(=O)[C@H](CC(C)C)NC(=O)[C@H](Cc1ccc(O)cc1)NC(=O)[C@H](CCCCN)NC(=O)[C@H](CO)NC(=O)[C@H](Cc1ccc(O)cc1)NC(=O)[C@H](CCCC(=O)O)NC(=O)[C@H](CO)NC(=O)[C@@H](NC(=O)[C@@H](N)Cc1ccccc1)[C@@H](C)O)C(C)C)C(=O)N[C@@H](CC(N)=O)C(=O)N[C@H](C(N)=O)[C@@H](C)O) [[hGlu^9]Glucagon(aa6-29)-NH2]

biological target: T1, human glucagon receptor; test: cell-based or functional assay; remark: another data set of the same source

Row | cAMP IC50 | Molecule
26 | 346 nM | FTSDYSKYLDSRRAQDFVQWLMNT-NH2 [Glucagon(aa6-29)-NH2]
27 | 101 nM | FTSC(CH2COOH)YSKYLDSRRAQDFVQWLMNT-NH2 [[(CSA-1)^9]Glucagon(aa6-29)-NH2]
28 | 398 nM | FTSKYSKYLDSRRAQDFVQWLMNT-NH2 [[Lys^9]Glucagon(aa6-29)-NH2]
29 | 116 nM | FTSC(CH2CH2COOH′)YSKYLDSRRAQDFVQWLMNT-NH2 [[(CSA-2)^9]Glucagon(aa6-29)-NH2]
30 | 472 nM | FTS[Aad]YSKYLDSRRAQDFVQWLMNT-NH2 (N-terminus assumed; SMILES CSCC[C@H](NC(=O)[C@H](CC(C)C)NC(=O)[C@H](Cc1c[nH]c2ccccc12)NC(=O)[C@H](CCC(N)=O)NC(=O)[C@@H](NC(=O)[C@H](Cc1ccccc1)NC(=O)[C@H](CC(=O)O)NC(=O)[C@H](CCC(N)=O)NC(=O)[C@H](C)NC(=O)[C@H](CCCNC(=N)N)NC(=O)[C@H](CCCNC(=N)N)NC(=O)[C@H](CO)NC(=O)[C@H](CC(=O)O)NC(=O)[C@H](CC(C)C)NC(=O)[C@H](Cc1ccc(O)cc1)NC(=O)[C@H](CCCCN)NC(=O)[C@H](CO)NC(=O)[C@H](Cc1ccc(O)cc1)NC(=O)[C@H](CCCC(=O)O)NC(=O)[C@H](CO)NC(=O)[C@@H](NC(=O)[C@@H](N)Cc1ccccc1)[C@@H](C)O)C(C)C)C(=O)N[C@@H](CC(N)=O)C(=O)N[C@H](C(N)=O)[C@@H](C)O) [[hGlu^9]Glucagon(aa6-29)-NH2]
